Data published in US20220315909.

B1: Recombinant Human Matriptase/ST14 Catalytic Domain (protein)
chain: not shown
cleavage ratio (PAR) on peptide array, human MT-SP1 500 nM (SEQ ID NO 17995): showed higher cleavage ratios than the sequence shown as SEQ ID NO: 3 for both the cleavages by human uPA and human MT-SP1 | cleavage ratio (PAR) on peptide array, human MT-SP1 500 nM (SEQ ID NO 18002): showed higher cleavage ratios than the sequence shown as SEQ ID NO: 3 for both the cleavages by human uPA and human MT-SP1 | cleavage ratio (PAR) on peptide array, human MT-SP1 500 nM (SEQ ID NO 17999): showed higher cleavage ratios than the sequence shown as SEQ ID NO: 3 for both the cleavages by human uPA and human MT-SP1 | cleavage ratio (PAR) on peptide array, human MT-SP1 500 nM (SEQ ID NO 17996): showed higher cleavage ratios than the sequence shown as SEQ ID NO: 3 for both the cleavages by human uPA and human MT-SP1 | cleavage ratio (PAR) on peptide array, human MT-SP1 500 nM (SEQ ID NO 18000): showed higher cleavage ratios than the sequence shown as SEQ ID NO: 3 for both the cleavages by human uPA and human MT-SP1 | cleavage ratio (PAR) on peptide array, human MT-SP1 500 nM (SEQ ID NOs: 17202-17993): showed higher cleavage ratios than the sequence shown as SEQ ID NO: 3 for both the cleavages by human uPA and human MT-SP1 | cleavage ratio (PAR) on peptide array, human MT-SP1 500 nM (SEQ ID NO 17994): showed higher cleavage ratios than the sequence shown as SEQ ID NO: 3 for both the cleavages by human uPA and human MT-SP1 | cleavage ratio (PAR) on peptide array, human MT-SP1 500 nM (SEQ ID NO 17997): showed higher cleavage ratios than the sequence shown as SEQ ID NO: 3 for both the cleavages by human uPA and human MT-SP1 | cleavage ratio (PAR) on peptide array, human MT-SP1 500 nM (SEQ ID NOs: 5-17201): showed higher cleavage ratios than the sequence shown as SEQ ID NO: 2 for both the cleavages by human uPA and human MT-SP1 | cleavage ratio (PAR) on peptide array, human MT-SP1 500 nM (SEQ ID NO 18001): showed higher cleavage ratios than the sequence shown as SEQ ID NO: 3 for both the cleavages by human uPA and human MT-SP1 | cleavage ratio (PAR) on peptide array, human MT-SP1 500 nM (SEQ ID NO 17998): showed higher cleavage ratios than the sequence shown as SEQ ID NO: 3 for both the cleavages by human uPA and human MT-SP1 | cleavage ratio (PAR) on peptide array, human MT-SP1 500 nM (SEQ ID NO 18003): showed higher cleavage ratios than the sequence shown as SEQ ID NO: 3 for both the cleavages by human uPA and human MT-SP1
